Values joined by “and” are separate entries in the source; they are usually repeats but may differ in a detail not shown here. Equal values may be shown once.

The values below come from patent US10184137B2, “Method of producing isoprene monomer” (AJINOMOTO CO., INC., priority 2014, dated 2019).

Type in all cases: biochemical
Data set [1] concerns mevalonate kinase. The data set is described as follows: Examination of product inhibition on each mevalonate kinase (absorbance at 386 nm, PMK addition). The note with it: 1 mM mevalonate as substrate; in words. As to the method: When decrease in absorbance stopped, purified PMK was added to measure further decrease in absorbance at 386 nm.
FIG. 18 presents the SDS-PAGE profile of the purified PMK. […] Then, absorbance decreased further and finally absorbance at 386 nm decreased to 0.3 in all reaction systems. Therefore, it is inferred that mevalonate is converted into diphosphomevalonate via phosphomevalonate by adding PMK to each MVK.

Data set [2] has as its system mevalonate kinase. The data set is described as follows: Expression analysis and activity confirmation of His-tagged mevalonate kinases from pET-21a(+) and pET-28b(+). The note with it: His-spinTrap eluate after dialysis, 10 μl enzyme solution. As to the method:
Each obtained plasmid was used for transformation of E. coli BL21(DE3). […] When OD600 reached approximately 0.5, IPTG was added to the solution to final concentration of 1 mM. It was then cultured overnight at 20° C. Harvested cells were suspended in the buffer solution consisting of 50 mM sodium phosphate, 0.3 M NaCl and 20 mM Imidazol. Then the cells were disrupted with an ultrasonic disruptor (TOMY: UD-201, output level=3.5). After centrifugation (20,000×g, 20 min), disrupted cells were adsorbed to His-spinTrap (GE Healthcare). After washing with the same buffer solution, protein was eluted with the buffer solution consisting of 50 mM sodium phosphate, 0.3 M NaCl and 0.5 M imidazole (pH7.5). Eluate was dialyzed overnight at 4° C. with the external solution composed of 20 mM Tris-HCl (pH7.5) and 50 mM NaCl. Then, enzyme activity of each eluate in the internal dialysis solution was measured.
Activity of the internal dialysate (about 0.2 ml each) was measured with the 10 μl of enzyme solution (Table 8). Enzyme expression level was compared on activity basis between pET-21a(+) and pET-28b(+). […] It is inferred that expression level is higher in pET-28b(+). Therefore, purified enzyme expressed in pET-28b(+) was used in the further examinations.
Values were presented by decrease in absorbance per unit time per 10 μl in the enzyme reaction measurement system (dABS/min/10 μl).
(§1) Decrease in absorbance at 340 nm at 30° C. was measured to determine the enzyme activity. JASCO Corporation's spectrophotometer (V-650) was used in this study. Millimolar extinction coefficient of NADH used in this study was 6.22 mM^−1 cm^−1. […] Km value was calculated by Lineweaver-Burk plot.

Data set [3] concerns mevalonate kinase. The experiment in a line: Measurement of activity and Km value of purified mevalonate kinase (PK/LDH coupled, 340 nm). The note with it: for dABS/min at mev 0.01 mM: potassium mevalonate 0.01 mM; for dABS/min at ATP 5 mM / dABS/min at mev 0.01 mM / dABS/min at mev 0.04 mM / dABS/min at mev 0.2 mM: ATP 5 mM; for dABS/min at mev 0.04 mM: potassium mevalonate 0.04 mM; for dABS/min at mev 0.2 mM: potassium mevalonate 0.2 mM. As to the method: Each obtained plasmid was used for transformation of E. coli BL21(DE3). […] When OD600 reached approximately 0.5, 0.1 mM IPTG (for cva, mma, nmr, and sce) or 1 mM (for mcl and mpd) of IPTG was added, and then the mixture was kept at 20° C. overnight to induce the target protein. Harvested cells were suspended in buffer solution A (50 mM sodium phosphate, 0.3 M NaCl and 20 mM Imidazol), and then the cells were disrupted with an ultrasonic disruptor (TOMY: UD-201). […] After centrifugation (28,000×g, 30 min), the supernatant was adsorbed onto His-Trap HP (GE Healthcare) to elute the target protein by linear concentration gradient of Imidazol (final concentration 0.5 M). Obtained protein was dialyzed by using an external solution composed of 20 mM Tris-HCl (pH 8.0) containing 1 mM DTT and 50 mM NaCl. Dialyzed protein was designated as purified enzyme. Protein quantity was measured with Bio-RAD protein assay kit and BSA standard condition.
as §1
Measured activity of each enzyme (JABS/min) was presented on Table 9 for the calculation of apparent Km value (Km app.) of each enzyme. Table 10 presents Km app., Vmax, molecular weight of the enzyme protein, protein concentration in the enzyme solution and calculated kcat.
Activity was indicated by dABS/min when 10 μl of each enzyme was added to 1 ml of reaction solution.

The subject of data set [4] is mevalonate kinase. The data set is described as follows: Inhibition of each mevalonate kinase by DMAPP, GPP, FPP or DPM. As to the method:
Since GPP and FPP solutions contain methanol, methanol which was needed to keep the same methanol level at the addition to the reaction system was added to the reaction solution, which was designated as control.
Respective effect of the added 5 mM DMAPP, 0.1 mM GPP, and 0.1 mM FPP on the activity of each enzyme was measured. […] Contrarily, mcl-derived enzyme was activated by 5 mM DMAPP and its activity increased by 20% from that of the control.
Activity when 10 μl of each enzyme was added to 1 ml of the reaction system was represented by dABS/min
Effect of 1 mM diphosphomevalonate (DPM) on each enzyme was also studied.

[5] abbreviates: potassium mevalonate 5 mM, 10 μl enzyme in 1 ml, replicate values.
The mark [6] stands for this setting: 10 μl enzyme in 1 ml, replicate values.
Where [7] appears, read: Table 11 control without terpenyl diphosphate (methanol added).

B1: cva: mevalonate kinase derived from Corynebacterium variabile (SEQ ID NO:3), His-tagged purified enzyme (protein)
chain: MAPHVGHGQTVAKIILFGEHSVVYGHPAIAMPLRTLRMIARVEPTDGPGTLSGLGWTGPITEAPARFSSIVKAAEVASDFAGHPGAGLNISTESEFPPERGLGSSAAAAGAVIRAVLDAFDTPATPRELFDLTQEAETVAHGRPSGLDAVATSAEAPVHFQAGQATDLEFSPDAWIVIADSGVEGSTRETVGHVRGRFEAEPDIITALLNRLGEITDEVVVDLRTGDVQGMGARMTEAHGILGQLGVSNTQLDALVTASLGAGALGAKLTGGGRGGCVIALAATEEDAENVEKALVDAGARGTWVHAPATGQMAGEVMQ
modifications: His-tag; Corynebacterium variabile
As for B1, the “course of decrease in absorbance at 386 nm until PMK addition” value in the data set with mevalonate kinase [1] was “almost linear decrease in absorbance”. In the data set with mevalonate kinase [2], the “enzyme activity, pET21 system (C terminal Tag)” value was determined as 0.019 dABS/min/10 μl and the “enzyme activity, pET28 system (N terminal Tag)” value is listed as 0.211 dABS/min/10 μl. Also, in the data set on mevalonate kinase [3] (setting [5]), the “dABS/min at ATP 0.2 mM” value is 0.005822 dABS/min and 0.005967 dABS/min and 0.005722 dABS/min; the “dABS/min at ATP 1 mM” value is 0.02063 dABS/min and 0.02015 dABS/min and 0.02051 dABS/min; the “dABS/min at ATP 5 mM” value is 0.03739 dABS/min and 0.03744 dABS/min and 0.03741 dABS/min. Further, in the data set on mevalonate kinase [3] (setting [6]), the “dABS/min at mev 0.01 mM” value is 0.01264 dABS/min and 0.01267 dABS/min and 0.01265 dABS/min; the “dABS/min at mev 0.04 mM” value was 0.03701 dABS/min and 0.03703 dABS/min and 0.03697 dABS/min; the “dABS/min at mev 0.2 mM” value was 0.0771 dABS/min and 0.07712 dABS/min and 0.07711 dABS/min. In addition, in the data set with mevalonate kinase [4] (setting [7]), the “enzyme activity, Control” value is recorded as 0.08338 dABS/min. For the same molecule, the “enzyme activity, Control” value in the data set with mevalonate kinase [4] (Table 12 control without DPM) stood at 0.07328 dABS/min.

B2: mpd: mevalonate kinase derived from Methanocella paludicola (SEQ ID NO:1), His-tagged purified enzyme (protein, listed as Methanocella paludicola)
chain: MTMCSAPGKVFLFGEHAVVYGKRAIACAIDLRTTVEVSRKSRGVHIHSAFKDEPDKNLYIKTAVKRMQKCADIRNVNIAVSSRIPVASGLGSSAAVTVATIGALNEEFSAGLSKKDIAYMAYQTELEVQGAASPTDTFVSTMGGTVVVPDMRTLPPITCGIVVGHTGISKSTSRMVSRVRTLKEKYPDVIDGIMDSIGDISARGEDLIKQNDYRSIGELMNVNQGLLDALGITIPELSLQIYAARQHGAYGAKITGAGGGGCMVAICDDKNCKEIATAIGRSYGDSFISKPTAEGIFIQ
modifications: His-tag
In the case of B2, the “course of decrease in absorbance at 386 nm until PMK addition” value with mevalonate kinase [1] is on record as “almost linear decrease in absorbance”. For the same molecule, in the data set with mevalonate kinase [2], the “enzyme activity, pET21 system (C terminal Tag)” value is reported as 0.011 dABS/min/10 μl and the “enzyme activity, pET28 system (N terminal Tag)” value stood at 0.031 dABS/min/10 μl. Further, in the data set with mevalonate kinase [3] (ATP 0.04 mM, potassium mevalonate 5 mM, 10 μl enzyme in 1 ml, replicate values), the “dABS/min at ATP 0.04 mM” value was 0.01369 dABS/min and 0.01352 dABS/min and 0.01403 dABS/min. Besides, in the data set with mevalonate kinase [3] (setting [5]), the “dABS/min at ATP 0.2 mM” value is 0.03262 dABS/min and 0.03252 dABS/min and 0.0325 dABS/min; the “dABS/min at ATP 1 mM” value is 0.04713 dABS/min and 0.04701 dABS/min and 0.04689 dABS/min; the “dABS/min at ATP 5 mM” value was 0.05141 dABS/min (2×) and 0.05155 dABS/min. For the same molecule, the “affinity to mevalonate and ATP compared with the other enzymes” value in the data set on mevalonate kinase [3] (in words) is “higher affinity to mevalonate and ATP than the other enzymes”. Besides, in the data set on mevalonate kinase [3] (setting [6]), the “dABS/min at mev 0.01 mM” value was 0.06401 dABS/min and 0.0638 dABS/min and 0.06377 dABS/min; the “dABS/min at mev 0.04 mM” value was 0.1211 dABS/min and 0.1213 dABS/min and 0.121 dABS/min; the “dABS/min at mev 0.2 mM” value is 0.1506 dABS/min (2×) and 0.1505 dABS/min. Further, the “enzyme activity, Control” value in the data set on mevalonate kinase [4] (setting [7]) was found to be 0.1573 dABS/min. Also, in the data set with mevalonate kinase [4] (Table 12 control without DPM), the “enzyme activity, Control” value was determined as 0.148 dABS/min.
